Test results published in US20190352359A1 (IMMATICS BIOTECHNOLOGIES, published 2019).

These binders were tested against T1, HLA-A*24 (assay: UV peptide-exchange ELISA (anti-b2m); yield grade ++ = >20%).
T1 construct: Monomers captured on streptavidin plates; also called peptide-receptive MHC molecules; MHC complexes
Description: Candidate peptides for T cell based therapies according to the present invention were further tested for their MHC binding capacity (affinity). The individual peptide-MHC complexes were produced by UV-ligand exchange, where a UV-sensitive peptide is cleaved upon UV-irradiation, and exchanged with the peptide of interest as analyzed. Only peptide candidates that can effectively bind and stabilize the peptide-receptive MHC molecules prevent dissociation of the MHC complexes. To determine the yield of the exchange reaction, an ELISA was performed based on the detection of the light chain (p2m) of stabilized MHC complexes. The assay was performed as generally described in Rodenko et al. (Rodenko et al., 2006)
96 well MAXISorp plates (NUNC) were coated over night with 2 ug/ml streptavidin in PBS at room temperature, washed 4× and blocked for 1 h at 37° C. in 2% BSA containing blocking buffer. Refolded HLA-A*02:01/MLA-001 monomers served as standards, covering the range of 15-500 ng/ml. Peptide-MHC monomers of the UV-exchange reaction were diluted 100-fold in blocking buffer. Samples were incubated for 1 h at 37° C., washed four times, incubated with 2 ug/ml HRP conjugated anti-β2m for 1h at 37° C., washed again and detected with TMB solution that is stopped with […]. Absorption was measured at 450 nm. Candidate peptides that show a high exchange yield (preferably higher than 50%, most preferred higher than 75%) are generally preferred for a generation and production of antibodies or fragments thereof, and/or T cell receptors or fragments thereof, as they show sufficient avidity to the MHC molecules and prevent dissociation of the MHC complexes.

| Binder | peptide exchange yield [%] |
| --- | --- |
| WQNVTPLTF (also called WQNVTPLTF) [MMP16-002] | 20 to 50 |
| AYAIPSASLSW (also called AYAIPSASLSW) [HMCN1-005] | 20 to 50 |
| LKSPRLFTF (also called LKSPRLFTF) [BTBD16-001] | 20 to 50 |
| QFSHVPLNNF (also called QFSHVPLNNF) [ALX1-001] | 20 to 50 |
| VYLRIGGF (also called VYLRIGGF) [WNT7A-002] | 20 to 50 |
| KTYLPTFETTI (also called KTYLPTFETTI) [ENP-002] | 20 to 50 |
| YTRLVLQF (also called YTRLVLQF) [GABRP-008] | 20 to 50 |
| INGDLVFSF (also called INGDLVFSF) [CAPN6-002] | 20 to 50 |
| YLGKNWSF (also called YLGKNWSF) [SPNS3-006] | 20 to 50 |
| MLYFAPDLIL (also called MLYFAPDLIL) [PGR-004] | 20 to 50 |
| RTLNEIYHW (also called RTLNEIYHW) [FOXP3-001] | 20 to 50 |
| THAGVRLYF (also called THAGVRLYF) [NUP155-012] | 20 to 50 |
| KMLPEASLLI (also called KMLPEASLLI) [NLRP4-004] | 20 to 50 |
| MGKGSISFLF (also called MGKGSISFLF) [PCSK1-001] | 20 to 50 |
| TQIITFESF (also called TQIITFESF) [CSF2-001] | 20 to 50 |
| FSSTLVSLF (also called FSSTLVSLF) [MAGEC1-003] | 20 to 50 |
| VTMYLPLLL (also called VTMYLPLLL) [GPR143-001] | 20 to 50 |
| RRVTWNVLF (also called RRVTWNVLF) [BTBD17-003] | 20 to 50 |
| VGRSPVFLF (also called VGRSPVFLF) [COL11A1-006] | 20 to 50 |
| AVLRHLETF (also called AVLRHLETF) [CDK6-006] | 20 to 50 |
| LFALPDFIF (also called LFALPDFIF) [CXCR3-002] | 20 to 50 |
| KYSVAFYSLD (also called KYSVAFYSLD) [LAMA1-008] | 20 to 50 |
| YLCMLYALF (also called YLCMLYALF) [KCNK18-001] | 20 to 50 |

| Binder | peptide exchange yield [%] |
| --- | --- |
| ASYQQSTSSFF (also called ASYQQSTSSFF) [FAM82A1-001] | 20 to 50 |
| CAMPVAMEF (also called CAMPVAMEF) [KBTBD8-003] | 20 to 50 |
| ALFPMGPLTF (also called ALFPMGPLTF) [LILRA4-003] | 20 to 50 |
| VHSYLGSPF (also called VHSYLGSPF) [MPL-001] | 20 to 50 |
| LYMRFVNTHF (also called LYMRFVNTHF) [SPINK2-002] | 20 to 50 |
| AAFPGAFSF (also called AAFPGAFSF) [CRB2-002] | 20 to 50 |
| TQLPAPLRI (also called TQLPAPLRI) [GPR45-001] | 20 to 50 |
| TIYSLEMKMSF (also called TIYSLEMKMSF) [GLB1L3-001] | 20 to 50 |
| MFQFEHIKW (also called MFQFEHIKW) [FBXW10-001] | 20 to 50 |
| YSLEHLTQF (also called YSLEHLTQF) [ZCCHC16-001] | 20 to 50 |
| VYPSESTVM (also called VYPSESTVM) [PTP-045] | 20 to 50 |
| SLPGSFIYVF (also called SLPGSFIYVF) [HMCN1-012] | 20 to 50 |
| VYDTMIEKFA (also called VYDTMIEKFA) [PTP-044] | 20 to 50 |
| KWFNVRMGFGF (also called KWFNVRMGFGF) [LIN-001] | 20 to 50 |
| TYGEEMPEEI (also called TYGEEMPEEI) [DNAH17-004] | 20 to 50 |
| EFINGWYVL (also called EFINGWYVL) [MCOLN2-002] | 20 to 50 |
| YQGSLEVLF (also called YQGSLEVLF) [MROH2A-006] | 20 to 50 |
| EVVHTVFLF (also called EVVHTVFLF) [HMCN1-007] | 20 to 50 |
| TYESVVTGFF (also called TYESVVTGFF) [HAS3-004] | 20 to 50 |
| FSFSTSMNEF (also called FSFSTSMNEF) [CAPN6-001] | 20 to 50 |
| KASKITFHW (also called KASKITFHW) [PTP-038] | 20 to 50 |
| YGQSKPWTF (also called YGQSKPWTF) [PAX3-001] | 20 to 50 |

Other lines, results leading:

| peptide exchange yield [%] | Binder |
| --- | --- |
| 20 to 50 | TQMDVKLVF (also called TQMDVKLVF) [GEN-003] |
| 20 to 50 | KYKPVALQCIA (also called KYKPVALQCIA) [HMCN1-009] |
| 20 to 50 | YLPNPSLNAF (also called YLPNPSLNAF) [CYP1A1-003] |
| 20 to 50 | KVFGSFLTL (also called KVFGSFLTL) [AGTR2-001] |
| 20 to 50 | KMFPKDFRF (also called KMFPKDFRF) [TTLL6-001] |
| 20 to 50 | KQPANFIVL (also called KQPANFIVL) [LOC1001246-001] |
| 20 to 50 | RALLPSPLF (also called RALLPSPLF) [SPATA31D1-001] |
| 20 to 50 | YAYATVLTF (also called YAYATVLTF) [ABCC4-002] |
| 20 to 50 | SQHFNLATF (also called SQHFNLATF) [DNMT3B-003] |
| 20 to 50 | VYVRPRVF (also called VYVRPRVF) [HMCN1-013] |
| 20 to 50 | LYQQSDTWSL (also called LYQQSDTWSL) [KIAA140-001] |
| 20 to 50 | IWDALERTF (also called IWDALERTF) [ABCC11-005] |
| 20 to 50 | RSWENIPVTF (also called RSWENIPVTF) [C18orf54-001] |
| 20 to 50 | RQAYSVYAF (also called RQAYSVYAF) [SLC45A3-005] |
| 20 to 50 | YQRPDLLLF (also called YQRPDLLLF) [GEN-004] |
| 20 to 50 | SYFEYRRLL (also called SYFEYRRLL) [LAMC2-019] |
| 20 to 50 | HQYGGAYNRV (also called HQYGGAYNRV) [DLX5-002] |
| 20 to 50 | FRSWAVQTF (also called FRSWAVQTF) [NOS2-002] |
| 20 to 50 | FFLFIPFF (also called FFLFIPFF) [ADAM2-001] |
| 20 to 50 | RHYHSIEVF (also called RHYHSIEVF) [LOXL4-004] |
| 20 to 50 | YTCSRAVSLF (also called YTCSRAVSLF) [OTOG-001] |
| 20 to 50 | AQGSGTVTF (also called AQGSGTVTF) [FCRL3-004] |
